Test results as given in paper PMC2120792.

Legend:
[1] = target: recombinant human plakoglobin, complete (pQPg) (human) (UniProt P14923); test: ELISA
[2] = target: SyPg(234), synaptophysin-plakoglobin chimera truncated after plakoglobin residue 234 (rat | human) (UniProt P07825); test: co-IP
[3] = target: SyPg(580), synaptophysin-plakoglobin chimera truncated after plakoglobin residue 580 (rat | human) (UniProt P07825); test: co-IP

Sequence of UniProt P14923 (P14923 whole entry, the tested form may be a part): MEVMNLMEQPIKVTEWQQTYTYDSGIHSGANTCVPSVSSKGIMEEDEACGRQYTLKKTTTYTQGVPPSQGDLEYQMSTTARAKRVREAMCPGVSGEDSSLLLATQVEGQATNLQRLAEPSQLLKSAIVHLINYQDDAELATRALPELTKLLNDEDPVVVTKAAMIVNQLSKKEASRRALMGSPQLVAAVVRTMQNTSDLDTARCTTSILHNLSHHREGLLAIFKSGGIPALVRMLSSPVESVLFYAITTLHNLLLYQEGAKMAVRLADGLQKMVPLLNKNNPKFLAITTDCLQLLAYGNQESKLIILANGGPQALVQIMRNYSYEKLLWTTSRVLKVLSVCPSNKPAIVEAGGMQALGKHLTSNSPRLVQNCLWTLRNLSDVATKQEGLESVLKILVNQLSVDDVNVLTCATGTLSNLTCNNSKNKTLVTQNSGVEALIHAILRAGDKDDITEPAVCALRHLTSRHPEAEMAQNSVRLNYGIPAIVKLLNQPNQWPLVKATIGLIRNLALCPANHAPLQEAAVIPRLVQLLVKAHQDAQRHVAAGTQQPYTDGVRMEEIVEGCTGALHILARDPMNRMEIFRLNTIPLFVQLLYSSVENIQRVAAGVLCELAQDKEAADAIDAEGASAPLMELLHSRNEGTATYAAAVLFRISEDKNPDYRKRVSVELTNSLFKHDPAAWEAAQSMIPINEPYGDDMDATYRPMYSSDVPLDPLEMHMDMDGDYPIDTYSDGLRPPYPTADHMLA

**Q.** “HCDc, his-tagged cadherin tail with the IA subdomain and C-domain of bovine Dsc1 (domain or fragment)” was tested. Which fold weaker binding than HCDg [1] did it give?
**A.** 2 fold

**Q.** For “endogenous desmoglein (Dsg) (from UniProt Q14126 50-1118) (natural protein)”, which Dsg coprecipitated relative to SyPg (fraction of that with SyPg) [2] is on record?
**A.** < 0.33

**Q.** What about the Dsg coprecipitated relative to SyPg (fraction of that with SyPg) [3] of the same substance?
**A.** < 0.33

**Q.** “HCUv, his-tagged cadherin tail with the IA subdomain of bovine Dsc1 and the C-subdomain of murine E-cadherin” was tested. Which fold weaker binding than HCDg [1] did it give?
**A.** 5 fold
